Measurements: article PMC7572726 (Nature, 2020)

Target: the molecule itself
Test: crystal structure

B1: Flavobacteriaceae sp. STING (ΔTM) (domain or fragment)
chain: EAEYSPAFALAVGYFKNFIFPAITQIKENGEVNPKICIYKPKHFDELTSTNIDMIKAELTNKKYNLSEINLSLKGARARDILTLNKKSKIHSYFDFPNTLLSLYSYVDFKIASSNNNSSELKKKKFVELLIEQFYLKLNELIQENNLTNNITFCDKNLQGL
stoichiometry N: 2
